Data on 1 substance can be found in article PMC9961482.

The experiment concerns the target Encapsulin–SpyTag (Myxococcus xanthus | Streptococcus pyogenes) (UniProt Q1D6H4). Description: reducing SDS-PAGE + SEC.

Chain of Encapsulin–SpyTag (Myxococcus xanthus | Streptococcus pyogenes) (Q1D6H4 1-287, tags left off): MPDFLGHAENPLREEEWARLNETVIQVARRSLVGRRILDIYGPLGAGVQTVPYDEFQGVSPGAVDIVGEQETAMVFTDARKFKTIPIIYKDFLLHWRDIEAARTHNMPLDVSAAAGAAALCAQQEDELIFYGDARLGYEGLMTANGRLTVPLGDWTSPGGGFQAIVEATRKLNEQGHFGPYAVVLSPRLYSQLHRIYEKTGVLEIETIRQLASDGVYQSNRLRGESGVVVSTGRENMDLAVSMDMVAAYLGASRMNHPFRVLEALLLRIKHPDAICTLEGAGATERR

In the case of “mRBD–SpyCatcher (from UniProt P0DTC2 332-532)”, the per cent conjugation worked out at 90 per cent.
